One molecule from US20230256017A1, “METHODS OF MAKING CHIMERIC ANTIGEN RECEPTOR-EXPRESSING CELLS” (Novartis AG, priority 2020, published 2023) can be followed below.

The test system of this assay is T cells. As to the kind of experiment: T cell expansion with cytokines after TCR stimulation (cell surface staining). Type of assay: cell-based. As to conditions: αCD3/αCD28 beads plus indicated cytokine. Here is the method: Previously frozen T cells were thawed and contacted with αCD3/αCD28 dynal beads (cell to bead ratio of 1 to 3) in the presence of indicated cytokines at day 0. From day 3, twice more T cell growth media (RPMI1640, 10% FBS, 2 mM L-glutamin, 100 µM non-essential amino acids, 1 mM sodium pyruvate, 10 mM Hepes, 55 µM β-mercaptoethanol, 10% FBS, and 100 U/ml of penicillin-streptomycin) was added to the plate with indicated cytokines (without cytokine, rhIL2 (50 IU/ml, Novartis), IL6 (10 ng/ml, R&D systems), IL7 (10 ng/ml, Peprotech), IL15 (10 ng/ml, Peprotech), and IL21 (10 ng/ml, Peprotech)) at day 3, 5, 6, 9, 12, 15, and 18.
Cells were harvested at indicated time points and then stained with live/dead dye (eFluro780, eBioscience), CD3 (BioLegend, clone#: OKT3), CD4 (BioLegend, clone#: OKT4), CD8 (BD Bioscience, clone#: RPA-T8), CD45RO (BioLegend, clone#: UCHL1), CCR7 (BioLegend, clone#: G043H7), CD27 (BD Horizon, clone#: L128), CD127 (BioLegend, clone#: A019D5), CD57 (BioLegend, clone#: HCD57), CD126 (BioLegend, clon#: UV4), and CD130 (R&D Systems, clone#: 28126) antibodies. The cells were acquired by FACS Fortessa and then FlowJo program was used for data analysis.

B1: IL7: cytokine present during activation of T cells with αCD3αCD28 beads (protein, UniProt P13232 26-177, looked up)
Interleukin-7: DCDIEGKDGKQYESVLMVSIDQLLDSMKEIGSNCLNNEFNFFKRHICDANKEGMFLFRAARKLRQFLKMNSTGDFDLHLLKVSEGTTILLNCTGQVKGRKPAALGEAQPTKSLEENKSLKEQKKLNDLCFLKRLLQEIKTCWNKILMGTKEH
In the case of B1, the T cell expansion result is listed as “enhanced T cell expansion”.
